Measured values as given in patent publication US20220332804A1 (CSL INNOVATION, published 2022).
Changes are numbered by the printed parent chain.

How the values were obtained:
Assay in all cases: SPR, KD relative to WT C2;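 also: biacore SPR at 37 °C, anti-C2 mAbs captured via immobilised goat anti-human IgG, C2 alanine or serine surface mutants as analytes, 1:1 model fitted, double-referenced sensograms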
human C2 D454A = biological target: T1, human C2 D454A (human, UniProt P06681 21-752)
T1 sequence: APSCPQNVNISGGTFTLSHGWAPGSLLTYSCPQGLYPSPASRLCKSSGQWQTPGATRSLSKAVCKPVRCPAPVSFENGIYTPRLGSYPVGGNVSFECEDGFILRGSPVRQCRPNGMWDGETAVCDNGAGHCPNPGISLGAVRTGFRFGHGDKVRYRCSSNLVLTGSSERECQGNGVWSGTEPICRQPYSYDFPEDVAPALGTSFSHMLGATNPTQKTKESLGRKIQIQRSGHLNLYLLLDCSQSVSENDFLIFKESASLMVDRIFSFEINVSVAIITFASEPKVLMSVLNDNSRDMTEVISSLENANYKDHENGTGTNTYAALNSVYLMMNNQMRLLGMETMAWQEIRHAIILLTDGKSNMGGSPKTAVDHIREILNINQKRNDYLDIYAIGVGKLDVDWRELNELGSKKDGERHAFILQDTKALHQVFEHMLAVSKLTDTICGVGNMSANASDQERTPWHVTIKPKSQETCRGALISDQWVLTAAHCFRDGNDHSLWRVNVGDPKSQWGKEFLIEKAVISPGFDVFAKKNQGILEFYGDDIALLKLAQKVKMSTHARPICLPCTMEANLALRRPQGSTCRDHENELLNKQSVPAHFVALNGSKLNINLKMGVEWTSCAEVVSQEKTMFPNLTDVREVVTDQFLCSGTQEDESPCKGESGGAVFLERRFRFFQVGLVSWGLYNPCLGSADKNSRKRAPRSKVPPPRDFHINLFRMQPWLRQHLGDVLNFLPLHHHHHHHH

human C2 E476A = biological target: T2, human C2 E476A (human, UniProt P06681 21-752)
T2 sequence: T1 sequence with A434D, E456A

human C2 G530A = biological target: T3, human C2 G530A (human, UniProt P06681 21-752)
T3 sequence: T1 sequence with A434D, G510A

human C2 K531A = biological target: T4, human C2 K531A (human, UniProt P06681 21-752)
T4 sequence: T1 sequence with A434D, K511A

B1: RF16-226 (antibody, human IgG4 S228P, lambda)
heavy: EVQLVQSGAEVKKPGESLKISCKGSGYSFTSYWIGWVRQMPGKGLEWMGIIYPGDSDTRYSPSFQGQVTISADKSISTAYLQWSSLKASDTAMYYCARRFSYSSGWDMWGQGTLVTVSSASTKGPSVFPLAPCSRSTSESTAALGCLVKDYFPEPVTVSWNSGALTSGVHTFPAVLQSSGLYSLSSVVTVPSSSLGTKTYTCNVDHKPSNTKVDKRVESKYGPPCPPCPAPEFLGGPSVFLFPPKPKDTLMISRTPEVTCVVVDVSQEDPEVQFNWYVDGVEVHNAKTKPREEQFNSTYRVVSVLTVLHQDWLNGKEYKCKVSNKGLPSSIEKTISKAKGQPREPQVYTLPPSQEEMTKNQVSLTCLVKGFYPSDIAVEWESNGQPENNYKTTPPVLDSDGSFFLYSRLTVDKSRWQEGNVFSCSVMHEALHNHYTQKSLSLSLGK
light: SYELTQPPSVSVSPGQTARITCSGDALTSKYVAWYQQKSGLAPLLVIYEDTRRPSGIPAKFSGSSSGSVATLTISGAHGDDEADYYCYSTDASGHQRVFGGGTKLTVLSQPKAAPSVTLFPPSSEELQANKATLVCLISDFYPGAVTVAWKADGSPVKAGVETTKPSKQSNNKYAASSYLSLTPEQWKSHRSYSCQVTHEGSTVEKTVAPTECS
notes: pH-dependent anti-C2 antibody from a phage display library; also called WT
**Q.** For B1, which Fold diff (human C2 D454A) is on record?
**A.** Its Fold diff is 25 fold.

**Q.** What about the Fold diff (human C2 E476A) of the same binder?
**A.** The Fold diff was 2 fold.

**Q.** And the Fold diff (human C2 G530A)?
**A.** The Fold diff was 2 fold.

**Q.** And the Fold diff (human C2 K531A)?
**A.** The Fold diff was 1 fold.
